The values below come from paper PMC2731815.

The target of assay [1] is thrombomodulin fragment 4-6 (TM4-6). Kind of assay: competition in a kinetic assay.
In assay [2] the target is Fl-FPR-inhibited thrombin (UniProt P00734). Kind of assay: other fluorescence titration.

As usually defined, the Kd is a measure of binding affinity in units of concentration. A higher Kd goes with lower affinity. Turning to “Ser-195 to Ala (S195A) substitution mutant of thrombin (from UniProt P00734 44-622) (enzyme)”, in assay [1], the dissociation constant (Kd) is 9 nM.
On to “thrombomodulin fragment 4-6 (TM4-6) (domain or fragment)”, for which the Kd in assay [2] is 3.5 nM.
